{
  "source": "paper PMC3799952",
  "about": "(Biochemistry, 2013)",
  "biological_target": "the molecule itself",
  "assay": "native gel or EMSA",
  "data": [
    {"protein": "amino terminus-truncated recombinant human aromatase, wild type (enzyme) MAKKTSSKGRNYEGTSSIPGPGYCMGIGPLISHGRFLWMGIGSACNYYNRVYGEFMRVWISGEETLIISKSSSMFHIMKHNHYSSRFGSKLGLQCIGMHEKGIIFNNNPELWKTTRPFFMKALSGPGLVRMVTVCAESLKTHLDRLEEVTNESGYVDVLTLLRRVMLDTSNTLFLRIPLDESAIVVKIQGYFDAWQALLIKPDIFFKISWLYKKYEKSVKDLKDAIEVLIAEKRRRISTEEKLEECMDFATELILAEKRGDLTRENVNQCILEMLIAAPDTMSVSLFFMLFLIAKHPNVEEAIIKEIQTVIGERDIKIDDIQKLKVMENFIYESMRYQPVVDLVMRKALEDDVIDGYPVKKGTNIILNIGRMHRLEFFPKPNEFTLENFAKNVPYRYFQPFGFGPRGCAGKYIAMVMMKAILVTLLRRFHVKTLQGQCVESIQKIHDLSLHPDETKNMLEMIFTPRNSDRCLEH", "values": [
      {"measurement": "stoichiometry N", "result": 5}
    ]},
    {"protein": "rArom E181K (enzyme, human) MAKKTSSKGRNYEGTSSIPGPGYCMGIGPLISHGRFLWMGIGSACNYYNRVYGEFMRVWISGEETLIISKSSSMFHIMKHNHYSSRFGSKLGLQCIGMHEKGIIFNNNPELWKTTRPFFMKALSGPGLVRMVTVCAESLKTHLDRLEEVTNKSGYVDVLTLLRRVMLDTSNTLFLRIPLDESAIVVKIQGYFDAWQALLIKPDIFFKISWLYKKYEKSVKDLKDAIEVLIAEKRRRISTEEKLEECMDFATELILAEKRGDLTRENVNQCILEMLIAAPDTMSVSLFFMLFLIAKHPNVEEAIIKEIQTVIGERDIKIDDIQKLKVMENFIYESMRYQPVVDLVMRKALEDDVIDGYPVKKGTNIILNIGRMHRLEFFPKPNEFTLENFAKNVPYRYFQPFGFGPRGCAGKYIAMVMMKAILVTLLRRFHVKTLQGQCVESIQKIHDLSLHPDETKNMLEMIFTPRNSDRCLEH", "values": [
      {"measurement": "stoichiometry N", "result": 2}
    ]},
    {"protein": "rArom E181A (enzyme, human) MAKKTSSKGRNYEGTSSIPGPGYCMGIGPLISHGRFLWMGIGSACNYYNRVYGEFMRVWISGEETLIISKSSSMFHIMKHNHYSSRFGSKLGLQCIGMHEKGIIFNNNPELWKTTRPFFMKALSGPGLVRMVTVCAESLKTHLDRLEEVTNASGYVDVLTLLRRVMLDTSNTLFLRIPLDESAIVVKIQGYFDAWQALLIKPDIFFKISWLYKKYEKSVKDLKDAIEVLIAEKRRRISTEEKLEECMDFATELILAEKRGDLTRENVNQCILEMLIAAPDTMSVSLFFMLFLIAKHPNVEEAIIKEIQTVIGERDIKIDDIQKLKVMENFIYESMRYQPVVDLVMRKALEDDVIDGYPVKKGTNIILNIGRMHRLEFFPKPNEFTLENFAKNVPYRYFQPFGFGPRGCAGKYIAMVMMKAILVTLLRRFHVKTLQGQCVESIQKIHDLSLHPDETKNMLEMIFTPRNSDRCLEH", "values": [
      {"measurement": "stoichiometry N", "result": 2}
    ]}
  ]
}
